Reference: patent publication US20140234868A1, “USE FOR GLYCOLIPOPROTEIN GINTONIN, ISOLATED AND IDENTIFIED FROM GINSENG, AS A NATURAL MEDICAL-PLANT DERIVED LIGAND” (KONKUK UNIVERSITY INDUSTRIAL COOPERATION CORP., priority 2011, published 2014)

B1: gintonin: ginseng-derived glycolipoprotein; structural protein of ginseng major latex-like protein (MLP151) and ribonuclease-like storage proteins; crude gintonin used in tests (protein)
chain 1: MGLTGKLICQTGIKSDGDVFHELFGTRPHHVPNITPANIQGCDLHEGEFGKVGSVVIWNYSIDGNAMIAKEEIVAIDEEDKSVTFKVVEGHLFEEFKSIVFSVHVDTKGEDNLVTWSIDYEKLNESVKDPTSYLDFLLSVTRDIEAHHLPK
chain 2: RSDYPWAMFALRLQWPAGFCEVNNACDTKSLLNTFTIHGLYPYNAKGTPALYCDGTAFDVNSVSDFLAEMHLAWPSHETNTEDIQFWEHEWKKHGRCSEALLKQTDYFRTALAFRKAFDIVGLLNQEGIYPNNDLYRPKMIKEAIKKHLNAVPEIDFTKNENSEYVLTDINVCVNQQATRFVDCPTDDATDDYRLKFVRLPSKMKFADPRTNSII

Legend:
[1] = tested on: NMDA receptors (NR1 and NR2); test: NMDA receptor activity in Xenopus oocytes, two-electrode voltage clamp; type: cell-based
Procedure, shortened: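 Xenopus oocytes injected with NR1 and NR2 cDNA (100 ng/40 nl) and kept 4-5 days at 18 °C in ND96. Two-electrode voltage clamp at −60 mV in Mg2+-free ND96, pH 7.6. Currents evoked by […].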

[2] = molecular target: LPA1 receptor (Homo sapiens, UniProt Q92633); test: Intracellular free Ca2+ (Fura-2AM) in LPA1-expressing B103 cells; type: cell-based; design: host or cells: B103 rat neuroblastoma cells
Excerpt: LPA family receptors are endogenous to cells of most organs. B103 rat neuroblastoma cells, known as LPA receptor-null cells (Valentine et al., Biochim Biophys Acta 1780. 597-605) were transiently transfected with a plasmid (vector) carrying one of genes coding for LPA1(edg-2), LPA2(edg-4), LPA3(edg-7), LPA4, LPA5 and LPA6 receptors or a plasmid carrying none of them (empty vector). Two or three days after transfection, the cells are suspended, and made permeable. Then, the permeable cells are treated with Fura-2AM, a fluorescent dye binding to calcium, and then with gintonin, followed by spectrofluorephotometry to examine whether gintonin induces an increase in intracellular free Ca^2+ level.
(1) preparing large quantities of plasmids carrying respective LPA family receptor genes and an empty plasmid carrying none of them through amplification and purification (maxi-preparation); (2) verifying the expression of LPA receptors wherein B103 cells are transfected with haematoglutin (HA)-tagged LPA receptors, and then subjected to Western blotting analysis using an anti-HA primary antibody and a horseradish peroxidase (HRP)-conjugated secondary antibody to develop a color; (3) verifying the expression of LPA receptors wherein B1-3 cells are transfected with haematoglutin (HA)-tagged LPA receptors, and then subjected to confocal laser microscopy using an anti-HA antibody and a fluorescence dye Cy3-conjugated secondary antibody; (4) transfecting the empty plasmid and each of the plasmids carrying LPA family receptor genes into B103 cells; (5) treating the transfected B103 cells with trypsin (0.05% trypsin with EDTA, w/v) 2-3 days post-transfection, to give a cell suspension; (6) culturing the suspended B103 cells with Fura-2AM (2.5 μM); and (7) treating the suspended B103 cells with gintonin and quantifying a change in intracellular free Ca^2+ level in a cuvette by spectrofluorephotometry using Fura-2AM.
Human LPA (lysophosphatidic acid) receptor subtypes, orphan GPCRs (G protein coupled receptors) and plasmids carrying GPCRs were purchased from Missouri S&T resource Center (www.cDNA.org).
The transient transfection of LPA receptor subtypes was carried out with the aid of Lipofectamine 2000 of Invitrogen. A plasmid (10.8 μg) carrying each LPA receptor (LPA1, LPA2, LPA3, LPA4, LPA5, and LPA6) was transfected into B103 cells grown in 10-cm dishes, and incubated for 2 days prior for use in experiments.
In this Example, gintonin, or ginsenoside Rb1 or Rg1 was examined for its ability to induce a transient increase of [Ca^2+]i in Fura-2AM-loaded B103 cells which were transfected with LPA receptors and in Fura-2AM-loaded B103 cells which were not transfected with LPA receptors. […]

LPA1 receptor, sequence (Q92633 whole entry): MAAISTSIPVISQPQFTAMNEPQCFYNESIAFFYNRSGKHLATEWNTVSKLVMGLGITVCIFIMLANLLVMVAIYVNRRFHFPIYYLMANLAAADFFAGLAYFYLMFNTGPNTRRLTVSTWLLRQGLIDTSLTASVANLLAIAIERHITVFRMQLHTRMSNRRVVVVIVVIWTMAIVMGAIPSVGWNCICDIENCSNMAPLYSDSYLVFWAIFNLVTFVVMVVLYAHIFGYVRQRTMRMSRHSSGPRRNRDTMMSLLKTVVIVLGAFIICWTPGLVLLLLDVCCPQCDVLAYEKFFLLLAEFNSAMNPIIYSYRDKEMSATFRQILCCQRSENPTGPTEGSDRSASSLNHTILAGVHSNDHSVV

Row | Molecule | effect on NMDA-induced inward current ([1]; Kil6425 10 μM, U73122 1 μM, 2-APB 100 μM, BAPTA 100 μM 3 h) | effect on gintonin-induced NMDA receptor activation ([1]; gintonin 1 μg/ml, Kil6425 10 μM, U73122, U73343 1 μM, 2-APB 100 μM, BAPTA 100 μM 3 h, genistein 10 μM, PP2, PP3 30 μM) | effect on gintonin-induced intracellular calcium increase ([2]; LPA1-expressing cells treated with antagonist) | ED50, NMDA receptor-mediated inward currents ([1]; NMDA receptor-expressing Xenopus oocytes) [µg/mL] | transient increase of [Ca2+]i when extracellular Ca2+ was depleted ([2]; Ca2+-free buffer containing 0.2 mM EGTA, LPA1-expressing cells) | EC50 ([2]; LPA1 receptor, B103 cells, read-out: EC50, LPA receptor-mediated intracellular calcium increase) [nM] | increase in intracellular calcium level ([2]; gintonin 1 μg/ml, LPA1-expressing B103 cells) [µM]
1 | Cc1noc(-c2ccc(CSCCC(=O)O)cc2)c1NC(=O)OC(C)c1ccccc1Cl (stereo not shown) [Kil6425] | had no influences on NMDA-NMDA receptor activation | blocked gintonin-induced NMDA receptor activation | did not increase in intracellular calcium level even in the presence of gintonin | – | – | – | –
2 | B1 | – | – | – | 0.49 ± 0.10 | at a greatly lowered level | 0.1 ± 0.02 | 185.9 ± 12.8
